# Measurements published in patent US20090226946.
# T1: S5a, P55036
# T1 chain: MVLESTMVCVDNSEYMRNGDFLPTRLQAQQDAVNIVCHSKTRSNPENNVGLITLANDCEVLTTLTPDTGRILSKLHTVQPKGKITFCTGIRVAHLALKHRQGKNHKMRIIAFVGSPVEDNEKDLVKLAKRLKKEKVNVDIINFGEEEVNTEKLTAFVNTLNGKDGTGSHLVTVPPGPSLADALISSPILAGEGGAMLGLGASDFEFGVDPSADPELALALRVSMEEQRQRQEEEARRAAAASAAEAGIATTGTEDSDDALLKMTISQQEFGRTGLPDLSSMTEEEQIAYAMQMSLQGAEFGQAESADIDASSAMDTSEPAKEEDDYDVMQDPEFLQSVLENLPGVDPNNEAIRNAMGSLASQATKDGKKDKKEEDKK
# B1: GST-E6AP (protein)
# chain: MEKLHQCYWKSGEPQSDDIEASRMKRAAAKHLIERYYHQLTEGCGNEACTNEFCASCPTFLRMDNNAAAIKALELYKINAKLCDPHPSKKGASSAYLENSKGAPNNSCSEIKMNKKGARIDFKDVTYLTEEKVYEILELCREREDYSPLIRVIGRVFSSAEALVQSFRKVKQHTKEELKSLQAKDEDKDEDEKEKAACSAAAMEEDSEASSSRIGDSSQGDNNLQKLGPDDVSVDIDAIRRVYTRLLSNEKIETAFLNALVYLSPNVECDLTYHNVYSRDPNYLNLFIIVMENRNLHSPEYLEMALPLFCKAMSKLPLAAQGKLIRLWSKYNADQIRRMMETFQQLITYKVISNEFNSRNLVNDDDAIVAASKCLKMVYYANVVGGEVDTNHNEEDDEEPIPESSELTLQELLGEERRNKKGPRVDPLETELGVKTLDCRKPLIPFEEFINEPLNEVLEMDKDYTFFKVETENKFSFMTCPFILNAVTKNLGLYYDNRIRMYSERRITVLYSLVQGQQLNPYLRLKVRRDHIIDDALVRLEMIAMENPADLKKQLYVEFEGEQGVDEGGVSKEFFQLVVEEIFNPDIGMFTYDESTKLFWFNPSSFETEGQFTLIGIVLGLAIYNNCILDVHFPMVVYRKLMGKKGTFRDLGDSHPVLYQSLKDLLEYEGNVEDDMMITFQISQTDLFGNPMMYDLKENGDKIPITNENRKEFVNLYSDYILNKSVEKQFKAFRRGFHMVTNESPLKYLFRPEEIELLICGSRNLDFQALEETTEYDGGYTRDSVLIREFWEIVHSFTDEQKRLFLQFTTGTDRAPVGGLGKLKMIIAKNGPDTERLPTSHTCFNVLLLPEYSSKEKLKERLLKAITYAKGFGML
# B2: GST-Siah2 (protein)
# chain: MSRPSSTGPSANKPCSKQPPPQPQHTPSPAAPPAAATISAAGPGSSAVPAAAAVISGPGGGGGAGPVSPQHHELTSLFECPVCFDYVLPPILQCQAGHLVCNQCRQKLSCCPTCRGALTPSIRNLAMEKVASAVLFPCKYATTGCSLTLHHTEKPEHEDICEYRPYSCPCPGASCKWQGSLEAVMSHLMHAHKSITTLQGEDIVFLATDINLPGAVDWVMMQSCFGHHFMLVLEKQEKYEGHQQFFAIVLLIGTRKQAENFAYRLELNGNRRRLTWEATPRSIHDGVAAAIMNSDCLVFDTAIAHLFADNGNLGINVTISTCCP
# B3: GST-Murf1 (protein)
# chain: MDYKSSLIQDGNPMENLEKQLICPICLEMFTKPVVILPCQHNLCRKCANDIFQAANPYWTSRGSSVSMSGGRFRCPTCRHEVIMDRHGVYGLQRNLLVENIIDIYKQECSSRPLQKGSHPMCKEHEDEKINIYCLTCEVPTCSMCKVFGIHKACEVAPLQSVFQGQKTELNNCISMLVAGNDRVQTIITQLEDSRRVTKENSHQVKEELSQKFDTLYAILDEKKSELLQRITQEQEKKLSFIEALIQQYQEQLDKSTKLVETAIQSLDEPGGATFLLTAKQLIKSIVEASKGCQLGKTEQGFENMDFFTLDLEHIADALRAIDFGTDEEEEEFIEEEDQEEEESTEGKEEGHQ
# B4: His-CHIP (protein)
# chain: MKGKEEKEGGARLGAGGGSPEKSPSAQELKEQGNRLFVGRKYPEAAACYGRAITRNPLVAVYYTNRALCYLKMQQHEQALADCRRALELDGQSVKAHFFLGQCQLEMESYDEAIANLQRAYSLAKEQRLNFGDDIPSALRIAKKKRWNSIEERRIHQESELHSYLSRLIAAERERELEECQRNHEGDEDDSHVRAQQACIEAKHDKYMADMDELFSQVDEKRKKRDIPDYLCGKISFELMREPCITPSGITYDRKDIEEHLQRVGHFDPVTRSPLTQEQLIPNLAMKEVIDAFISENGWVEDY
# B5: GST-Nedd4 (protein)
# chain: MATCAVEVFGLLEDEENSRIVRVRVIAGIGLAKKDILGASDPYVRVTLYDPMNGVLTSVQTKTIKKSLNPKWNEEILFRVHPQQHRLLFEVFDENRLTRDDFLGQVDVPLYPLPTENPRLERPYTFKDFVLHPRSHKSRVKGYLRLKMTYLPKTSGSEDDNAEQAEELEPGWVVLDQPDAACHLQQQQEPSPLPPGWEERQDILGRTYYVNHESRRTQWKRPTPQDNLTDAENGNIQLQAQRAFTTRRQISEETESVDNRESSENWEIIREDEATMYSNQAFPSPPPSSNLDVPTHLAEELNARLTIFGNSAVSQPASSSNHSSRRGSLQAYTFEEQPTLPVLLPTSSGLPPGWEEKQDERGRSYYVDHNSRTTTWTKPTVQATVETSQLTSSQSSAGPQSQASTSDSGQQVTQPSEIEQGFLPKGWEVRHAPNGRPFFIDHNTKTTTWEDPRLKIPAHLRGKTSLDTSNDLGPLPPGWEERTHTDGRIFYINHNIKRTQWEDPRLENVAITGPAVPYSRDYKRKYEFFRRKLKKQNDIPNKFEMKLRRATVLEDSYRRIMGVKRADFLKARLWIEFDGEKGLDYGGVAREWFFLISKEMFNPYYGLFEYSATDNYTLQINPNSGLCNEDHLSYFKFIGRVAGMAVYHGKLLDGFFIRPFYKMMLHKPITLHDMESVDSEYYNSLRWILENDPTELDLRFIIDEELFGQTHQHELKNGGSEIVVTNKNKKEYIYLVIQWRFVNRIQKQMAAFKEGFFELIPQDLIKIFDENELELLMCGLGDVDVNDWREHTKYKNGYSANHQVIQWFWKAVLMMDSEKRIRLLQFVTGTSRVPMNGFAELYGSNGPQSFTVEQWGTPEKLPRAHTCFNRLDLPPYESFEELWDKLQMAIENTQGFDGVD
# Target: T1, S5a, P55036
row,Protein,"Ubiquitinated S5a? (in vitro ubiquitination assay, Western blot with anti-S5a)"
1,B1,Yes
2,B2,Yes (low)
3,B3,Yes
4,B4,Yes
5,B5,Yes
